The target of this assay is platelet GPIIIa (integrin beta3) on platelets (human) (UniProt P05106). As to the kind of experiment: cell-based or functional assay.
Chain of platelet GPIIIa (integrin beta3) on platelets (human) (P05106 27-788): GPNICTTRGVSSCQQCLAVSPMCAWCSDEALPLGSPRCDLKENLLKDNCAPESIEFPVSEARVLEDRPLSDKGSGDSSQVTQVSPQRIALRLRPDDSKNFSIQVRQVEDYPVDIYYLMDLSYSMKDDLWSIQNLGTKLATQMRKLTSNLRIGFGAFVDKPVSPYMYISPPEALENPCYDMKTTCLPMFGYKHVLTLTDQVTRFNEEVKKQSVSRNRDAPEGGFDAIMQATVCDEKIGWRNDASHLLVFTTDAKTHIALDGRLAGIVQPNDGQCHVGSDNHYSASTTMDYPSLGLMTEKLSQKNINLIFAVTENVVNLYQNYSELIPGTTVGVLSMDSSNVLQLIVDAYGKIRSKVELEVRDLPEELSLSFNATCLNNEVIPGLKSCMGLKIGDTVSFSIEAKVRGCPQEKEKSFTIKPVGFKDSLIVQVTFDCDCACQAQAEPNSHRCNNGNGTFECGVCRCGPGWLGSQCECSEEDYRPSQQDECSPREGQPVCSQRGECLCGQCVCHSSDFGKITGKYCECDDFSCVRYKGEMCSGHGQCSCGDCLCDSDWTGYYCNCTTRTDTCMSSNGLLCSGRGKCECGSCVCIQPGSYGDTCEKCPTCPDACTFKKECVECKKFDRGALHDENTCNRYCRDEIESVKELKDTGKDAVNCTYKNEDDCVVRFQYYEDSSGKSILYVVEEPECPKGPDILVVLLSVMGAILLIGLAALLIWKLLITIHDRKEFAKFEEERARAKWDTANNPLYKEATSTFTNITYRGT

Turning to “ADAMTS-18 66 amino acid fragment (1156-1221) (from UniProt Q8TE60 1156-1221) (ligand)”, the platelet fragmentation was 85 µM.
